Measured values taken from article PMC9738581, “Dissection of Functional Domains of Orc1-2, the Archaeal Global DNA Damage-Responsive Regulator”.
Where a chain is given by its changes, count along the chain named.

Assays:
Conditions in all cases: protein: recombinant; tags: His; label: 5'-32P; blunt
Orc1-2 ΔC = molecular target: T1, Orc1-2 ΔC (Saccharolobus islandicus REY15A, UniProt F0NF18 1-298); experiment: EMSA; EMSA: 20 mM HEPES pH 7.6, 10 mM (NH4)2SO4, 1 mM DTT, 0.2% Tween-20, 30 mM KCl, 40 °C 20 min, 2 nM probe; 8% native PAGE in 40 mM Tris, 20 mM boric acid
T1 sequence: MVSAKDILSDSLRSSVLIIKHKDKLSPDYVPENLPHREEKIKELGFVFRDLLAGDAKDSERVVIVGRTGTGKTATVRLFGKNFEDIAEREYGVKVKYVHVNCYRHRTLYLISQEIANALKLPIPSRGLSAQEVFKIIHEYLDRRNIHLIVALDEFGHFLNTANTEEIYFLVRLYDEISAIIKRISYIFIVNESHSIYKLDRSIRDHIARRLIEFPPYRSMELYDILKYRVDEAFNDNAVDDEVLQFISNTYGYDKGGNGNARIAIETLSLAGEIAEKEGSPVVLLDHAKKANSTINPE

Orc1-2 WT [1] = molecular target: T2, Orc1-2 WT (Saccharolobus islandicus REY15A, UniProt F0NF18 1-413); experiment: as above
T2 sequence: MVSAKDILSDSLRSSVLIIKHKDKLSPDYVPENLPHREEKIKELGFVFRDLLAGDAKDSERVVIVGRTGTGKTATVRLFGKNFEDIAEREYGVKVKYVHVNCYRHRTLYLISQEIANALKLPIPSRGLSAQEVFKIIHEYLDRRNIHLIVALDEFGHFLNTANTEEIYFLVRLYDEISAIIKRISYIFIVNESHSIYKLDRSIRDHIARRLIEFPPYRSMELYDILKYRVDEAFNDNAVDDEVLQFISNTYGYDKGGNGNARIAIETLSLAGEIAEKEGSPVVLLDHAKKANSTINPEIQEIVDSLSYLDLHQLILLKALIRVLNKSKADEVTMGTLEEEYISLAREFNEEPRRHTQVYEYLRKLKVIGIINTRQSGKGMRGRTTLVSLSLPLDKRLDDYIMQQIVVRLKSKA

Orc1-2 wH = molecular target: T3, Orc1-2 wH (Saccharolobus islandicus REY15A, UniProt F0NF18 1-413, R353A;R354A;R381A;R383A); experiment: as above
T3 sequence: T2 sequence with R353A, R354A, R381A, R383A

Orc1-2 WB = molecular target: T4, Orc1-2 WB (Saccharolobus islandicus REY15A, UniProt F0NF18 1-413, E154A); experiment: EMSA; similar or stronger than WT; EMSA: 20 mM HEPES pH 7.6, 10 mM (NH4)2SO4, 1 mM DTT, 0.2% Tween-20, 30 mM KCl, 40 °C 20 min, 2 nM probe; 8% native PAGE in 40 mM Tris, 20 mM boric acid
T4 sequence: T2 sequence with E154A

Orc1-2 ΔN = molecular target: T5, Orc1-2 ΔN (Saccharolobus islandicus REY15A, UniProt F0NF18 299-413); experiment: EMSA; large complexes, distributive; two distinct complexes at lowest protein concentration; EMSA: 20 mM HEPES pH 7.6, 10 mM (NH4)2SO4, 1 mM DTT, 0.2% Tween-20, 30 mM KCl, 40 °C 20 min, 2 nM probe; 8% native PAGE in 40 mM Tris, 20 mM boric acid
T5 sequence: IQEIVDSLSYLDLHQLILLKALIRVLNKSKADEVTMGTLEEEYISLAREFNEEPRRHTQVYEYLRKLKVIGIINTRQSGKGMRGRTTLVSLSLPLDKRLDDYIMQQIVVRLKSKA

Orc1-2 WT [2] = molecular target: T2, Orc1-2 WT; experiment: EMSA; 25 nM protein, unlabeled specific competitor; affinity very similar to PupsE; EMSA: 20 mM HEPES pH 7.6, 10 mM (NH4)2SO4, 1 mM DTT, 0.2% Tween-20, 30 mM KCl, 40 °C 20 min, 2 nM probe; 8% native PAGE in 40 mM Tris, 20 mM boric acid

B1: PupsE (dsDNA)
DNA 1: CTATAAAGGAAGTTTTAAGTAATTTCGGTATTGTGTGAGTATATTT
DNA 2: AAATATACTCACACAATACCGAAATTACTTAAAACTTCCTTTATAG
- binding result (Orc1-2 ΔC): no binding
- binding result (Orc1-2 WT [1]): binds
- binding result (Orc1-2 wH): no binding
- binding result (Orc1-2 WB): binds
- binding result (Orc1-2 ΔN): binds

B2: Porc1-2 (dsDNA)
DNA 1: TTTGAGAAAGAATCAAGAAAAGTTTCGGACTACTCTCTTAGATAAA
DNA 2: TTTATCTAAGAGAGTAGTCCGAAACTTTTCTTGATTCTTTCTCAAA
- binding result (Orc1-2 WT [2]): binds
